System: p1-encoded leu2 (Q180*)
Test: Large-scale p1 fluctuation tests of p1-encoded leu2 (Q180*), per-base substitution rate
Format: cell-based, S. cerevisiae
Settings: per-base substitution rate, p1-encoded leu2 (Q180*), large-scale fluctuation test
Text: All three TP-DNAP1 libraries were screened through small scale p1 fluctuation tests in a metastable S. cerevisiae strain, OR-Y24. OR-Y24 contains w.t. p1 and recombinant p1 that lacks w.t. TP-DNAP1, and instead, encodes a standardized fluorescence reporter of p1 copy number (Table 1), and a disabled version of the LEU2 selection marker (leu2 (Q180*)). As described previously (Ravikumar et al., 2014), leu2 (Q180*) contains a C→T mutation at base 538 in LEU2 at a site permissive to all single point mutants that generate missense mutations. Reversion to functional LEU2 can be detected on medium lacking leucine.
Large-scale fluctuation tests of p1-encoded leu2 (Q180*) were performed to precisely determine per-base substitution rates for individually cloned or isolated TP-DNAP1 variants. Large-scale p1 fluctuation tests are performed similarly to small-scale p1 fluctuation tests, with several modifications. First, large-scale p1 fluctuation tests were typically performed with 36-48 replicates. For highly error-prone TP-DNAP1s obtained from later rounds of screening, fewer replicates (3-16) were used, which is sufficient for similar precision (Foster et al., 2006). Second, p1 copy number was determined by the flow cytometry method, described below. Third, cell titers were measured for each fluctuation test to estimate the average number of cells per culture. Cell resuspensions were diluted and plated on solid SC-UH medium, and colony counts were determined after incubation at 30° C. for 2-3 days. Alternatively, cell resuspensions were diluted and subject to an event-count measurement via flow cytometry. Fourth, inoculums of highly error-prone TP-DNAP 1 s occasionally contained pre-existing mutants, despite the 1:10,000 dilution, so mutant frequencies were estimated by plating pre-cultures on solid SC-UHLW, pH 5.8 medium. Plates were incubated for 2-3 days, in parallel with cultures grown for fluctuation tests. Pre-culture mutant titers were counted to estimate the number of replicates in the fluctuation test expected to contain pre-existing mutants (n). Revertants were counted from all replicates of the fluctuation tests, counts were sorted, and n replicates with the highest counts were omitted from calculations.
To calculate per-base substitution rates, fluctuation data were analyzed by the maximum likelihood method, implemented using newton.LD.plating in rSalvador 1.7 (Zheng, 2017). Phenotypic mutation rates were calculated by normalizing to the average number of cells per culture. Phenotypic mutation rates were divided by the measured p1 copy number and by the number of ways leu2 (Q180*) can revert to LEU2 (2.33 for the ochre codon) to yield per-base substitution rates. 95% confidence intervals were similarly scaled by these factors. All data related to large-scale p1 fluctuation tests are fully described in Table 2.

Molecule	Mutation rate (s.p.b.)
I775A, L900S (protein) MDYKDKALNDLRNVYADFDSLPLDFRQILIKDRATLLQKEDVEKKILERQEDAKKYAEYLKQSEIPERISLPNIKRHKGVSISFEETSEDMVLEPRPFIFDGLNIRCFRRETIFSLKNKILNMVKESSSFKNVSRQSVSFMYFKIFNKGKVIASTKSVNIYEDKIDERLEDLCNNFDDVLKKIIDVTYGYESLFVSETYSYVIFYAKSIYFPQPRCVNNWGNNIPNILTFDSFKLFTANKNNVSCIKQCSRFLWQKDFNTLEEMIEYKNGNICIVTPQLHINDVRDIKSFNDIRLYSESPIKTFSVIDNTITYLFYFKEHLGVIFNITKSRHDRRVTKFSPLSKFSDVKNITVCFDIESYFDPEKESNQVNIPFICCASIIYNKVIGNIVDFEGRDCVAQMIEYVVDICGELNISSVELIAHNGGGYDFHYILSSMYNPAAIKNILIRNNSFISFNFAHDGVKFSVKDSYSFLLCSLANASKAFLNEETFKKTDFPHHDLKTADDLYKVYKEWSSVNTEINHVVEKEKLLITSEHIVNFTKNDKSKTLIEWSKDYCRNDVLVLSKVWLEFKNAVEDIFNCELVDQTMTLAGLSYKLFQANMPFDVELRHPNKEDYFNMREALIGGRCISVNGIYKDVLCLDVKSLYPASMAFYDQPYGSFKRVSSRPKDELGIYYVRVTPNRNNKSNFFPIRSHNKITYNNFEESTYIAWYTNVDIDIGLSEGHNIEYIPFDSYGNIGYSWSKKGKIFEKYIKDVLYKLKIKYEKQNNKVKRNVAKIIMNSLWGKFAQKWVNFEYFIKSEDDIDFESEEAYKIWDTDFMLIKKIKESTYSSKPIQNGVFTLSWARYHMKSIWDAGAKEGAECIYSDTDSIFVHKEHFKKNAKFMLNGLKVPIIGSEVGQSELECEFDKLLCAGKKQYMGFYTYFQDGKPCIKEKKRFKGIPSNYIIPELYAHLLSGADKEAKIQFLKFRREWGSVKGYIENKTVKAT	2.53 × 10^−8 s.p.b.
I775A, F968T (protein) MDYKDKALNDLRNVYADFDSLPLDFRQILIKDRATLLQKEDVEKKILERQEDAKKYAEYLKQSEIPERISLPNIKRHKGVSISFEETSEDMVLEPRPFIFDGLNIRCFRRETIFSLKNKILNMVKESSSFKNVSRQSVSFMYFKIFNKGKVIASTKSVNIYEDKIDERLEDLCNNFDDVLKKIIDVTYGYESLFVSETYSYVIFYAKSIYFPQPRCVNNWGNNIPNILTFDSFKLFTANKNNVSCIKQCSRFLWQKDFNTLEEMIEYKNGNICIVTPQLHINDVRDIKSFNDIRLYSESPIKTFSVIDNTITYLFYFKEHLGVIFNITKSRHDRRVTKFSPLSKFSDVKNITVCFDIESYFDPEKESNQVNIPFICCASIIYNKVIGNIVDFEGRDCVAQMIEYVVDICGELNISSVELIAHNGGGYDFHYILSSMYNPAAIKNILIRNNSFISFNFAHDGVKFSVKDSYSFLLCSLANASKAFLNEETFKKTDFPHHDLKTADDLYKVYKEWSSVNTEINHVVEKEKLLITSEHIVNFTKNDKSKTLIEWSKDYCRNDVLVLSKVWLEFKNAVEDIFNCELVDQTMTLAGLSYKLFQANMPFDVELRHPNKEDYFNMREALIGGRCISVNGIYKDVLCLDVKSLYPASMAFYDQPYGSFKRVSSRPKDELGIYYVRVTPNRNNKSNFFPIRSHNKITYNNFEESTYIAWYTNVDIDIGLSEGHNIEYIPFDSYGNIGYSWSKKGKIFEKYIKDVLYKLKIKYEKQNNKVKRNVAKIIMNSLWGKFAQKWVNFEYFIKSEDDIDFESEEAYKIWDTDFMLIKKIKESTYSSKPIQNGVFTLSWARYHMKSIWDAGAKEGAECIYSDTDSIFVHKEHFKKNAKFMLNGLKVPIIGSEVGQLELECEFDKLLCAGKKQYMGFYTYFQDGKPCIKEKKRFKGIPSNYIIPELYAHLLSGADKEAKIQFLKTRREWGSVKGYIENKTVKAT	7.29 × 10^−8 s.p.b.
I777A, F871Y (protein) MDYKDKALNDLRNVYADFDSLPLDFRQILIKDRATLLQKEDVEKKILERQEDAKKYAEYLKQSEIPERISLPNIKRHKGVSISFEETSEDMVLEPRPFIFDGLNIRCFRRETIFSLKNKILNMVKESSSFKNVSRQSVSFMYFKIFNKGKVIASTKSVNIYEDKIDERLEDLCNNFDDVLKKIIDVTYGYESLFVSETYSYVIFYAKSIYFPQPRCVNNWGNNIPNILTFDSFKLFTANKNNVSCIKQCSRFLWQKDFNTLEEMIEYKNGNICIVTPQLHINDVRDIKSFNDIRLYSESPIKTFSVIDNTITYLFYFKEHLGVIFNITKSRHDRRVTKFSPLSKFSDVKNITVCFDIESYFDPEKESNQVNIPFICCASIIYNKVIGNIVDFEGRDCVAQMIEYVVDICGELNISSVELIAHNGGGYDFHYILSSMYNPAAIKNILIRNNSFISFNFAHDGVKFSVKDSYSFLLCSLANASKAFLNEETFKKTDFPHHDLKTADDLYKVYKEWSSVNTEINHVVEKEKLLITSEHIVNFTKNDKSKTLIEWSKDYCRNDVLVLSKVWLEFKNAVEDIFNCELVDQTMTLAGLSYKLFQANMPFDVELRHPNKEDYFNMREALIGGRCISVNGIYKDVLCLDVKSLYPASMAFYDQPYGSFKRVSSRPKDELGIYYVRVTPNRNNKSNFFPIRSHNKITYNNFEESTYIAWYTNVDIDIGLSEGHNIEYIPFDSYGNIGYSWSKKGKIFEKYIKDVLYKLKIKYEKQNNKVKRNVIKAIMNSLWGKFAQKWVNFEYFIKSEDDIDFESEEAYKIWDTDFMLIKKIKESTYSSKPIQNGVFTLSWARYHMKSIWDAGAKEGAECIYSDTDSIYVHKEHFKKNAKFMLNGLKVPIIGSEVGQLELECEFDKLLCAGKKQYMGFYTYFQDGKPCIKEKKRFKGIPSNYIIPELYAHLLSGADKEAKIQFLKFRREWGSVKGYIENKTVKAT	2.57 × 10^−7 s.p.b.
I775A, K934W (protein) MDYKDKALNDLRNVYADFDSLPLDFRQILIKDRATLLQKEDVEKKILERQEDAKKYAEYLKQSEIPERISLPNIKRHKGVSISFEETSEDMVLEPRPFIFDGLNIRCFRRETIFSLKNKILNMVKESSSFKNVSRQSVSFMYFKIFNKGKVIASTKSVNIYEDKIDERLEDLCNNFDDVLKKIIDVTYGYESLFVSETYSYVIFYAKSIYFPQPRCVNNWGNNIPNILTFDSFKLFTANKNNVSCIKQCSRFLWQKDFNTLEEMIEYKNGNICIVTPQLHINDVRDIKSFNDIRLYSESPIKTFSVIDNTITYLFYFKEHLGVIFNITKSRHDRRVTKFSPLSKFSDVKNITVCFDIESYFDPEKESNQVNIPFICCASIIYNKVIGNIVDFEGRDCVAQMIEYVVDICGELNISSVELIAHNGGGYDFHYILSSMYNPAAIKNILIRNNSFISFNFAHDGVKFSVKDSYSFLLCSLANASKAFLNEETFKKTDFPHHDLKTADDLYKVYKEWSSVNTEINHVVEKEKLLITSEHIVNFTKNDKSKTLIEWSKDYCRNDVLVLSKVWLEFKNAVEDIFNCELVDQTMTLAGLSYKLFQANMPFDVELRHPNKEDYFNMREALIGGRCISVNGIYKDVLCLDVKSLYPASMAFYDQPYGSFKRVSSRPKDELGIYYVRVTPNRNNKSNFFPIRSHNKITYNNFEESTYIAWYTNVDIDIGLSEGHNIEYIPFDSYGNIGYSWSKKGKIFEKYIKDVLYKLKIKYEKQNNKVKRNVAKIIMNSLWGKFAQKWVNFEYFIKSEDDIDFESEEAYKIWDTDFMLIKKIKESTYSSKPIQNGVFTLSWARYHMKSIWDAGAKEGAECIYSDTDSIFVHKEHFKKNAKFMLNGLKVPIIGSEVGQLELECEFDKLLCAGKKQYMGFYTYFQDGKPCIKEWKRFKGIPSNYIIPELYAHLLSGADKEAKIQFLKFRREWGSVKGYIENKTVKAT	3.59 × 10^−8 s.p.b.
I775A, L909F (protein) MDYKDKALNDLRNVYADFDSLPLDFRQILIKDRATLLQKEDVEKKILERQEDAKKYAEYLKQSEIPERISLPNIKRHKGVSISFEETSEDMVLEPRPFIFDGLNIRCFRRETIFSLKNKILNMVKESSSFKNVSRQSVSFMYFKIFNKGKVIASTKSVNIYEDKIDERLEDLCNNFDDVLKKIIDVTYGYESLFVSETYSYVIFYAKSIYFPQPRCVNNWGNNIPNILTFDSFKLFTANKNNVSCIKQCSRFLWQKDFNTLEEMIEYKNGNICIVTPQLHINDVRDIKSFNDIRLYSESPIKTFSVIDNTITYLFYFKEHLGVIFNITKSRHDRRVTKFSPLSKFSDVKNITVCFDIESYFDPEKESNQVNIPFICCASIIYNKVIGNIVDFEGRDCVAQMIEYVVDICGELNISSVELIAHNGGGYDFHYILSSMYNPAAIKNILIRNNSFISFNFAHDGVKFSVKDSYSFLLCSLANASKAFLNEETFKKTDFPHHDLKTADDLYKVYKEWSSVNTEINHVVEKEKLLITSEHIVNFTKNDKSKTLIEWSKDYCRNDVLVLSKVWLEFKNAVEDIFNCELVDQTMTLAGLSYKLFQANMPFDVELRHPNKEDYFNMREALIGGRCISVNGIYKDVLCLDVKSLYPASMAFYDQPYGSFKRVSSRPKDELGIYYVRVTPNRNNKSNFFPIRSHNKITYNNFEESTYIAWYTNVDIDIGLSEGHNIEYIPFDSYGNIGYSWSKKGKIFEKYIKDVLYKLKIKYEKQNNKVKRNVAKIIMNSLWGKFAQKWVNFEYFIKSEDDIDFESEEAYKIWDTDFMLIKKIKESTYSSKPIQNGVFTLSWARYHMKSIWDAGAKEGAECIYSDTDSIFVHKEHFKKNAKFMLNGLKVPIIGSEVGQLELECEFDKFLCAGKKQYMGFYTYFQDGKPCIKEKKRFKGIPSNYIIPELYAHLLSGADKEAKIQFLKFRREWGSVKGYIENKTVKAT	2.46 × 10^−8 s.p.b.

From patent US20230242902A1, “A HIGHLY ERROR-PRONE […] R[…] FOR TARGETED CONTINUOUS EVOLUTION IN VIVO” (The Regents of the University of California, priority 2017, published 2023)
